One molecule from US20100041873A1 (ZymoGenetics, published 2010) can be followed below.

The target of one assay is T1, Recombinant human IL-9 (human, UniProt P15248 19-144).
T1 construct: also called Hu IL-9
Description: Western blot. (In general: Immunoblotting shows a protein as a band on a membrane.)

Another assay concerns the target T2, Recombinant human IL-7 (human, UniProt P13232 26-177).
T2 construct: also called Hu IL-7
T2 sequence (looked up): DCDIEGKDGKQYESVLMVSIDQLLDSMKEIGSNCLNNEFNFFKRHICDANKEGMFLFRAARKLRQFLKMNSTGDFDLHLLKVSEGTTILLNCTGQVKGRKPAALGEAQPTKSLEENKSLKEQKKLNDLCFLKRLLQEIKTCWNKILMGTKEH
Description: Western blot.

For a further assay, the target named is T3, Recombinant human IL-2 (human, UniProt P60568 21-153).
T3 construct: also called Hu IL-2
Description: Western blot.

For a further assay, the target named is T4, Recombinant human IL-4 (human, UniProt P05112 25-153).
T4 construct: also called Hu IL-4
T4 sequence (looked up): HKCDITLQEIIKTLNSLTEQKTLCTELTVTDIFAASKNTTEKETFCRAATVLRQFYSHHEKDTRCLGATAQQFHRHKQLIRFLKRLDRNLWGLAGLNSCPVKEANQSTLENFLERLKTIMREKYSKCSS
Briefly: Western blot.

A further assay has as its target T5, Recombinant human IL-15 (human, UniProt P40933 49-162).
T5 construct: also called Hu IL-15
Briefly: Western blot.

In assay [1] the target is T6, Hu IL-21 Peptide A1751 (conjugated to ovalbumin) (human, conjugated to ovalbumin).
T6 construct: also called peptide #3 N97-C122 conjugated to ovalbumin
T6 peptide: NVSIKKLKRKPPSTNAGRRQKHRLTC
Briefly: Western blot. The procedure:
(§1) For Western blots, the non-specific sites on the membranes were blocked with a buffer containing 20 mM Tris, pH 7.4, 0.5 mM EDTA, 0.5% IGEPAL CA-630, 150 mM NaCl, 0.25% gelatin, and 1% casein hydrolysate blocking solution (Western Blocking Reagent, Roche Diagnostics, Inc., Basel Switerzerland) (Blocking Buffer). The membranes were then incubated for 2 hrs at room temperature with purified monoclonal antibody (10 ng/ml or 100 ng/ml) in the Blocking Buffer followed by a 2 hr incubation with peroxidase conjugated donkey anti-human IgG (Jackson Laboratories, Bar Harbor, Me.). The membranes were washed 5 times with the Tris/EDTA/IGEPAL/NaCl/gelatin Blocking buffer which lacked the casein hydrolysate and developed with SUPERSIGNAL™ DuraWest Luminol/Enhancer/Peroxidase Solution (Pierce, Rockford, Ill.) for chemoluminescence detection. The blots were visualized using X-ray film based standard methods.

Assay [2] deals with T7, Hu IL-21 Peptide A1750 (conjugated to ovalbumin) (human, also: chemically conjugated to ovalbumin).
T7 construct: also called peptide #2 N54-C71 conjugated to ovalbumin
T7 peptide: NDLVPEFLPAPEDVETNC
Description: Western blot. The protocol:
as §1

The target in assay [3] is T8, Hu IL-21 Peptide A1752 (conjugated to ovalbumin) (human, conjugated to ovalbumin).
T8 construct: also called peptide #4 C125-S153 conjugated to ovalbumin
Description: Western blot. The procedure:
as §1

Another assay has as its target Recombinant murine IL-21 (mouse, UniProt Q9ES17 18-146). Description: Western blot. The procedure:
as §1

Assay [4] has as its target T9, Human IL-21 peptide #3 (N97-C122) (human).
T9 peptide: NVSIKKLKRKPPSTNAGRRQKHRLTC
Briefly: direct ELISA. The protocol: (§2) Wells were blocked with 200 μL/well of Blocking Buffer (PBS-Tween plus 1% w/v bovine serum albumin (BSA)) for 1 hour, after which the plates were washed twice with Wash Buffer. Antibody dilutions were prepared in 5% fetal bovine serum (FBS)/Iscove's Modified Dulbecco's Media (IMDM) medium and adjusted to 1 μg/ml. […] Following 1 hour incubation at ambient temperature, the wells were aspirated and the plates washed twice as described above. Horseradish peroxidase (HRP) labeled Goat anti Mouse IgG, Fc specific or Goat anti Rat IgG, Fc specific, or Goat anti Human IgG, Fc specific (Jackson ImmunoResearch Laboratories, West Grove, Pa.) at a dilution of 1:5000 with 5% FBS/IMDM medium was then added to each well, 100 μL/well, and the plates incubated at ambient temperature for 1 hour. After removal of unbound HRP conjugated antibody, the plates were washed five times, 100 μL /well of tetra methyl benzidine (TMB) (BioFX Laboratories, Owings Mills, Md.) added to each well and the plates incubated for 3 minutes at ambient temperature. Color development was stopped by the addition of 100 μL /well of 450 nm TMB Stop Reagent (BioFX Laboratories, Owings Mills, Md.) and the absorbance values of the wells read on a Molecular Devices Spectra MAX 340 instrument at 450 nm.

The target of assay [5] is T10, Human IL-21 peptide #1 (pyr30-K50) (human, N-terminal pyroGlu).
T10 construct: coated on ELISA plates; also called Peptide 1 N-Term
T10 peptide: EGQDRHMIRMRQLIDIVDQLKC
Description: direct ELISA. The protocol:
as §2
A general note: In an ELISA, binding on a coated surface is turned into a signal by an enzyme label.

Assay [6] addresses T11, Human IL-21 peptide #2 (N54-C71) (human).
T11 peptide: NDLVPEFLPAPEDVETNC
Description: direct ELISA. The procedure: as §2

Assay [7] has as its target T12, Human IL-21 peptide #4 (C125-S153) (human).
T12 construct: also called Peptide 4 C-Term
Description: direct ELISA. The procedure: as §2

Assay [8] has as its target T13, Recombinant mutant human IL-21 (human, UniProt Q9HBE4 30-162, limits assumed).
T13 construct: also called IL-21 mutant; mutant human IL-21 protein
Briefly: direct ELISA. The protocol:
as §2

In assay [9] the target is Recombinant cynomolgus IL-21 (cynomolgus monkey, UniProt Q9HBE4 30-162 (human entry), limits assumed). Description: cell-based or functional assay.
Assay [10] addresses T14, Recombinant human IL-21 (human, UniProt Q9HBE4 30-162). Description: cell-based or functional assay.
Assay [11] addresses T14, Recombinant human IL-21. Briefly: cell-based or functional assay. This is another data set of the same source.
In assay [12] the target is T14, Recombinant human IL-21. Description: cell-based or functional assay. This is another data set of the same source.

Where “and” joins values, the source holds several entries; their conditions need not be identical. Equal entries are not always repeated. No end group written: not given here.

T14 sequence (Q9HBE4 30-162 limits assumed): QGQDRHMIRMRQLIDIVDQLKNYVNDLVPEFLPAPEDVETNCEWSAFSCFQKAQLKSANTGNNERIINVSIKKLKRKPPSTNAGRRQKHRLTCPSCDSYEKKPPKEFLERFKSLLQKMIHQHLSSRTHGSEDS
Sequence of Recombinant cynomolgus IL-21 (Q9HBE4 other isoform, or with tags, fused parts or gaps limits assumed): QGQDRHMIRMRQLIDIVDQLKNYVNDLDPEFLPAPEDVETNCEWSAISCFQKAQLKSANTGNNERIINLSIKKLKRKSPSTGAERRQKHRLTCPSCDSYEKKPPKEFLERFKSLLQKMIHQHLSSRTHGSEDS
T1 sequence (P15248 19-144 limits assumed): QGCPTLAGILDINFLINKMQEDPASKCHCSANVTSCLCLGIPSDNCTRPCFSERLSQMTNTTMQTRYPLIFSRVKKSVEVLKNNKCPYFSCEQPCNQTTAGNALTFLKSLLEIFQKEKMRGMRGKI
T13 sequence (Q9HBE4 other isoform, or with tags, fused parts or gaps mutant limits assumed): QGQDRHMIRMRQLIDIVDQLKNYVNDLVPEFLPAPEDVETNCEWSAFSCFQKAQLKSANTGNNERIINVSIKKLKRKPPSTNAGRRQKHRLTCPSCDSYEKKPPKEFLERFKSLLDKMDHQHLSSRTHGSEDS
T8 sequence (peptide, as listed by the source): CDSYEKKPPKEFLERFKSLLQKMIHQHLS
T5 sequence (P40933 49-162 limits assumed): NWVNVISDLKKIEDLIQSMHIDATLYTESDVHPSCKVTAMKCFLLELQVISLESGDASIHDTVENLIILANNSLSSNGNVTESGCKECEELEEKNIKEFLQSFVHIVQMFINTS
T3 sequence (P60568 21-153 limits assumed): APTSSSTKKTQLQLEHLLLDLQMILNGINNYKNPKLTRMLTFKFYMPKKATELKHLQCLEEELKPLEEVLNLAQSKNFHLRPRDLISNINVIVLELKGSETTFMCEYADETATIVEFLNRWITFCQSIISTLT

B1: Human anti-human IL-21 monoclonal antibody 366.328.10 (antibody, V domains shown)
VH: EVQLVESGGGLVKPGGSLRLSCAASGFIFSSYSMNWVRQAPGKGLEWVSSITSGSYYIHYADSVKGRFTISRDNAKNSLYLQMNSLRAEDTAVYYCVRERGWGYYGMDVWGQGTTVTVSS
VL: AIQLTQSPSSLSASVGDRVTITCRASQDIDSALAWYQQKPGKAPKILIHDASSLESGVPSRFSGSGSGTDFTLTISSLQPEDFATYYCQQFNSYPYTFGQGTKLEIK
notes: Hybridoma antibody, ATCC PTA-8789; isotype printed as IgG
As for B1, the binding result with Recombinant human IL-9 is listed as “no binding”; with Recombinant human IL-7 it was “no binding”; in the assay with Recombinant human IL-2, “no binding”; with Recombinant human IL-4, “no binding”; with Recombinant human IL-15 it was “no binding”; in assay [1] it was “no binding (tested: 10 or 100 ng/ml mAb)”. Besides, the binding result in [2] is “no binding (tested: 10 or 100 ng/ml mAb)”; in assay [3], “no binding (tested: 10 or 100 ng/ml mAb)”; with Recombinant murine IL-21, “no binding (tested: 10 or 100 ng/ml mAb)”; in assay [4] it was “no binding (tested: 1 ug/ml mAb)”; in assay [5], “no binding (tested: 1 ug/ml mAb)”; in assay [6], “no binding (tested: 1 ug/ml mAb)”. Moreover, the binding result in assay [7] is “no binding (tested: 1 ug/ml mAb)”; in assay [8], “binds”. For the same molecule, in [9], the “Cyno IL-21 IC50 ([cIL-21] = 100 pM), STAT-Luciferase assay” value was 15 ng/mL and 100 pM. Moreover, the “IC50 (nM), B cell proliferation assay (anti-CD40 + 3.21 nM IL-21)” value in the assay with Recombinant human IL-21 [10] came out at 0.71 nM. Moreover, the “IC50 (pM), STAT3-phosphorylation assay, Expt #1” value with Recombinant human IL-21 [11] came to 210 pM. The “% IgD-low, CD138+ Plasma Cells, antagonist:ligand 0.16:1” value with Recombinant human IL-21 [12] worked out at 52.1%. Also, in the assay with Recombinant human IL-21 [12], the “% IgD-low, CD138+ Plasma Cells, antagonist:ligand 0.6:1” value is 41.4%. In the assay with Recombinant human IL-21 [12], the “% IgD-low, CD138+ Plasma Cells, antagonist:ligand 2.5:1” value worked out at 20.2%. Also, in the assay with Recombinant human IL-21 [12], the “% IgD-low, CD138+ Plasma Cells, antagonist:ligand 10:1” value turned out to be 15.4%.
